Reference: the RNAGym collection of RNA variant scans (doi:10.1101/gr.219683.116)

B1: mRNA-splicing (parent)
chain: AGUUGCUGCUGGGAGCUCCAGCACAGUGAAAUGGACAGAAGGGCAGAGCAA

Variants of: B1
Test: exon inclusion enrichment index; higher = more inclusion; WT1 exon 5 minigene, HEK293

Point of comparison: G2C U3C G5A C6G U7G C9A, “exon inclusion enrichment index” value 0.0355. Against it:
- C6A U7C C9A U10C A40G G41U — higher, 2.58
- C6A U7C C9A U10C C22U A23G — higher, 3.38
- G5C C6U G8C C9U U10C C24A A25U — higher, 1.94
- G2A U3A C6A U7A C9A U10A — higher, 0.777
- G5C C6A U7C G8A U10A G12A G13U — lower, 0.016
- G38U — lower, 0.029
- G5C C6G U7C U10C A14C G15A — higher, 1.07
- C6A U7C C9A U10C U32A — higher, 3.06
- G5A C6U U7A G8U C9A A20C G21C — lower, 0.0139
- G5U G8C C9U U10C — higher, 0.934
- G5C C6G U7C G11C — higher, 2.28
- G5A C6U U7A G8U C9A G46C A47G — higher, 0.159
- G5U C6U U7A G8U C9A — higher, 0.0673
- G5U G8U C9U A45C G46C — higher, 0.0849
- C6A U7A C9A U10A C19G — higher, 0.576
- G5U G8U C9U G34A A35C — higher, 0.0912
- G5U G8U C9U G34A A35U — lower, 0.0163
- G5C C6A U7C G8A U10A A14C — higher, 0.0603
- C6A U7C C9A U10C G34A A35G — higher, 2.05
- G5A C6G U7G C9A A23G C24A — lower, 0.00158
- G5U G8U C9U A37U G38C — higher, 0.0749
- G5U G8U C9U G26U U27G — higher, 0.458
- C6A U7C C9A U10C A35G C36A — higher, 2.29
- G5A C6U U7A G8U C9A G13C A14C — higher, 0.039
- U4C G5C C6A U7C G8A U10A — higher, 0.286
- U4C C6A U7C C9A U10C — higher, 4.65
- G5U G8U C9U A25U — higher, 0.289
- G5C C6A U7C G8A U10A G13C A14G — higher, 0.278
- G5C C6G U7C U10C A39G A40U — higher, 0.671
- G5C C6G U7C U10C A39G A40C — higher, 3.86
- G5C C6G U7C U10C A37C G38U — higher, 2.1
- G41C — higher, 0.866
- G5A C6U U7A G8U C9A C22A A23C — higher, 0.189
- G5C C6U G8C C9U U10C G42A — higher, 3.34
- G5A C6G U7G C9A G11U G12U — lower, 0.000733
- G5C C6U G8C C9U U10C U32A — higher, 1.46
- G5A C6U U7A G8U C9A G11A G12U — lower, 0.01
- G5C C6A U7C G8A U10A G15U — higher, 0.098
- U3G U4C G5C C6G U7C U10C — higher, 2.03
- A45C G46U — lower, 0.0235
- C6A U7C C9A U10C C16G U17C — higher, 1.82
- G46A — higher, 0.245
- C6A U7A C9A U10A C16A U17G — higher, 0.312
- G5C C6A U7C G8A U10A G42C G43U — higher, 0.483
- G5A U7C G8A U10C U17A C18U — higher, 1.52
- G5C C6G U7C U10C C16U — higher, 4.22
- G5C C6G U7C U10C C19A A20U — higher, 1.52
- U7A G8A — higher, 1.49
- G5U G8U C9U A35C C36A — higher, 0.0636
- C6G U7A C9A U10A — higher, 0.321
- A40U G41C — higher, 0.701
- G5A U7C G8A U10C A25G G26U — higher, 3.09
- G5C C6G U7C U10C A20U G21A — higher, 2.15
- A47G G48U — lower, 0.00564
- G5C C6A U7C G8U C9U U10A — lower, 0.0134
- G5C C6A U7C G8A U10A C22A A23U — higher, 0.0806
- G5C C6U G8C C9U U10C A37C — higher, 3.08
- G5C C6U G8C C9U U10C U27A G28C — higher, 2.07
- G5C C6G U7C U10C A35U C36A — lower, 0.0112
- G5A U7C G8A C9U U10G — higher, 0.887
- G5C C6U G8C C9U U10C A37U G38U — higher, 0.446
- G5C C6G U7C U10C G26U U27C — higher, 4.3
- G42C — higher, 0.853
- G5C C6A U7A G8C C9U U10C — higher, 2.04
- C6A U7C C9A U10C U17G C18A — higher, 3.29
- A23G C24A — higher, 1.56
- G2C G5C C6G U7C U10C — higher, 2.87
- C6A U7C C9A U10C A14G G15A — higher, 3.53
- C18U C19G — higher, 0.995
- G5U C6G U7G G8U C9U — higher, 0.0864
- G5A C6U U7A G8U C9A A47C G48C — higher, 0.0967
- G5C C6U G8C C9U U10C G41U G42A — higher, 0.727
- G5U G8U C9U C24A A25U — higher, 0.149
- C6A U7C C9A U10C G34U A35U — higher, 1.33
- G5C C6U G8C C9U U10C G26A U27A — higher, 1.96
- G5A U7C G8A U10C G12U G13U — higher, 0.053
- C6A U7C C9A U10C A25C G26C — higher, 4.09
- G5C C6G U7C U10C C44G A45G — higher, 1.17
- G5C C6G U7C U10C A30C A31U — higher, 3.41
- G11U — higher, 2.22
- C6A U7A C9A U10A G13U A14U — higher, 0.534
- C6A U7A C9A U10A C22U A23U — higher, 0.226
